Data taken from PMC7288244.

What was measured:
[1] = target: the FcγR; experiment: fluorescence correlation spectroscopy
[2] = target: Human Recombinant FcγR receptor IIA/CD32a (human) (UniProt P12318); experiment: ELISA
Chain of UniProt P12318 (P12318 34-217): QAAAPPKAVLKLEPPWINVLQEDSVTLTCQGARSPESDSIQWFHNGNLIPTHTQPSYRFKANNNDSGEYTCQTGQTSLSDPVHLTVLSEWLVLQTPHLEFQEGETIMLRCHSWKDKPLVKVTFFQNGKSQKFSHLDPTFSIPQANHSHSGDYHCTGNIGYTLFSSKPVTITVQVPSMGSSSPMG

Substance	stoichiometry N [1]	EC50 [2] [nM]
human IgG1 mAb C11-LALA (antibody)	1	–
immune complex of C11-LALA with FLSC	–	0.6
human IgG1 mAb N5-i5-LALA (antibody)	1	–
immune complex of N5-i5-LALA with FLSC	–	6
